These results are taken from US20150258217A1, “Methods of Synthesizing and Using Peg-Like Fluorochromes” (THE GENERAL HOSPITAL CORPORATION, priority 2012, published 2015).

The nature of data set [1]: Quantum yield determination. The format is physicochemical. The conditions noted are these: for Quant. Yield: Table 5, in PBS. Summed up:
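Relative quantum yields in PBS, probe absorbance adjusted below 0.1, references IR-783 (0.043), fluorescein (0.18), Cy3 (0.31). Excitation/emission ranges: PN(783) 730 nm/765–870 nm; PN(545) 515 nm/538–700 nm; PN(497) 450 nm/475–620 nm, maximum emission used. Triplicate, mean±SD.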

Data set [2] can be described thus: Circulating form of PN's (FPLC of serum after IV injection). Type of data set: in vivo, mouse. The conditions noted are these: nude mice, 20 nmoles. As for the experimental part:
20 nmoles of PN(783)4.3, PN(783)6.1, or PN(783)10.0 was injected (IV, tail vein) into nude mice (female; 25-30 g; 6-8 weeks old; nu/nu). At the indicated time, 50 μl of blood was collected with microhematocrit capillary tube (Fisher Scientific) from the tail, and transferred to Eppendorf microcentrifuge tube with anticoagulant (EDTA) coating (Fisher Scientific). Tubes were centrifuged (5000 rpm for 5 minutes), and the supernatant was injected to the FPLC, a ÄKTA Purifier 10 with Superdex™ 200 10/300GL column.

The subject of data set [3] is HT-29, a human colon carcinoma cell line. Briefly: PN and peptide binding to cells (non-specific binding, FACS). Particulars: HT-29 cells, 30 min at 37° C., FACS. The format is cell-based. Summed up:
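Cells seeded at 5×10^5 cells/well the day before, then rinsed and incubated 30 min at 37 °C in 2% FBS/DPBS (+Ca, +Mg) with nanoprobes (added as a 2 μM solution; concentration set spectrophotometrically via dye extinction coefficients). After trypsin/EDTA detachment, cell-associated fluorescence was read by FACS.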

Data set [4] is described as follows: PN and peptide size (volume, diameter) by FPLC gel filtration (Superdex 200, globular protein standards). Type of data set: physicochemical. The conditions noted are these: for Volume FPLC (diameter) / Volume FPLC: Table 5; for Volume FPLC (diameter): converted from globular protein equivalent MW; for Volume FPLC: globular protein equivalent molecular weight. Summed up: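 Superdex 200 size exclusion in 0.05 M sodium phosphate, 0.15 M NaCl, 0.1% Tween, pH 7.2 at 0.8 ml/min, calibrated with globular protein standards via Kav. Apparent globular-equivalent molecular weight converted to diameter using radius (nm)=0.066M^1/3.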
In general terms: SEC sorts molecules by how far they enter the pores of the column.

For the substance “(DOTA)Lys(PEG5K)-Cys(IR-783) [PN(783)4.3]”, the “Quantum Yield” value in data set [1] (Table 3B, IR-783 dipeptides) came out at 0.17. Moreover, the “Quant. Yield” value in data set [1] came out at 0.16. In data set [2], the “circulating form after injection (FPLC elution vs pre-injection sample)” value was “identical for pre-injection samples and for sera from injected mice”. The “Cell NSB (percent of cells with fluorescence higher than unstained cell)” value in data set [3] turned out to be 20%. For the same substance, the “PEG-based expansion of volume” value in data set [4] (5 kDa PEG vs non-PEGylated peptide, (4.3/1.1)) is listed as 59 fold. The substance further returned a diameter in data set [4] (FPLC gel filtration) of 4.3 nm. Besides, in data set [4] (Table 3B, dipeptides), the “Molecular Volume FPLC” value was 35.2 kDa. Also, in data set [4], the “Volume FPLC (diameter)” value is 4.3 nm and the “Volume FPLC” value amounted to 35.2 kDa.

As for “(DOTA)Lys(PEG30K)-Cys(IR-783) [PN(783)10.0]”, the “Quant. Yield” value in data set [1] was found to be 0.16. Further, the “circulating form after injection (FPLC elution vs pre-injection sample)” value in data set [2] is recorded as “circulates at its pre-injection size”. Moreover, in data set [3], the “Cell NSB (percent of cells with fluorescence higher than unstained cell)” value was 18%. In data set [4], the “Volume FPLC (diameter)” value was 10.0 nm and the “Volume FPLC” value came out at 435.4 kDa.
